Data reported in article PMC7072391.

Molecular target: tropomyosin receptor kinase A (TrkA) (rat (endogenous in primary septal cholinergic neurons)) (UniProt P35739)
UniProt P35739, sequence (P35739 33-799): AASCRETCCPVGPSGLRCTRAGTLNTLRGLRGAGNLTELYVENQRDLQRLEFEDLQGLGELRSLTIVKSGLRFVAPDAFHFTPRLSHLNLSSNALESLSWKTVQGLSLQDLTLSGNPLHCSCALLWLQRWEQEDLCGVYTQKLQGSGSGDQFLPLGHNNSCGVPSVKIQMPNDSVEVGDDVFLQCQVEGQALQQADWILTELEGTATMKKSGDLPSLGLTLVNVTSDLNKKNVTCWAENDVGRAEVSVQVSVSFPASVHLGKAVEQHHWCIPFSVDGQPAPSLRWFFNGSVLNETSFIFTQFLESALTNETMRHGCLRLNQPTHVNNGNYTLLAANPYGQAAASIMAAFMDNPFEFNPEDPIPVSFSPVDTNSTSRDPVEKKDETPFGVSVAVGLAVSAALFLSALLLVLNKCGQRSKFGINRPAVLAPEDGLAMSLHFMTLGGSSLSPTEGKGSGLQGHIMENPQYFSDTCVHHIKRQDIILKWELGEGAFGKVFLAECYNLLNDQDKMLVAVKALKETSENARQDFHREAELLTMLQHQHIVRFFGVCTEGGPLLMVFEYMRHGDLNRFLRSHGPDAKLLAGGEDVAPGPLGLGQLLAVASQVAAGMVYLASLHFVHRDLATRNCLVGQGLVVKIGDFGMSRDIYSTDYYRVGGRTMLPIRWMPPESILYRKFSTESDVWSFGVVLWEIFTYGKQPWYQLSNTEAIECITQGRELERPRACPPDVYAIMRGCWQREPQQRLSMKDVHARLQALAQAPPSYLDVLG

Row | Substance | pTrkA (Y490) level by western blot, cholinergic neurons treated 7′ with 10 μM peptide | pTrkA (Y490) level by western blot, cholinergic neurons treated 7′ with 100 ng/mL (3.84 nM) NGF
1 | human NGF 1–14 sequence, monomeric hNGF1–14 peptide | 153 % of CTR | 
2 | hNGF1–15 dimer (peptide) | 155 % of CTR | 
3 | acetylated monomer Ac-hNGF1–14 peptide | 296 % of CTR | 
4 | Nerve Growth Factor (NGF), murine (from UniProt P01139 122-241) (ligand) |  | 161 % of CTR
